Measurements reported in PMC4941327.

Biological target: mAb04-MICA antibody fusion protein (human) (UniProt Q29983)
Test: SPR; Biacore X100; mAb04-MICA captured on a CM5 chip by anti-human IgG (Fc) antibody; soluble NKG2D injected at 7.8125-250 nM; HBS-EP pH 7.4; bivalent analyte model (the results say 2:1 binding model)

Chain of UniProt Q29983 (Q29983 whole entry, looked up, the tested form may be a part): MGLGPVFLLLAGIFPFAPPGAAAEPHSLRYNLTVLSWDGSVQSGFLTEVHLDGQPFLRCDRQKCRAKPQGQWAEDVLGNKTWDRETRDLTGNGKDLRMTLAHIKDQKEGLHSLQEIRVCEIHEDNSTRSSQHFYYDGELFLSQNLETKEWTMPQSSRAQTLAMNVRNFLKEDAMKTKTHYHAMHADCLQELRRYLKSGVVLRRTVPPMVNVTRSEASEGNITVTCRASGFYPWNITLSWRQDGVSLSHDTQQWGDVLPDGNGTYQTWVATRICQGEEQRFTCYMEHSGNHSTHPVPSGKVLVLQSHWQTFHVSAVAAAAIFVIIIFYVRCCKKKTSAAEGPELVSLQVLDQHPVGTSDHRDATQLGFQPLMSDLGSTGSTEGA

Kd: 710 nM
koff: 188 s⁻¹
kon: 2.65e+08 M⁻¹ s⁻¹
Substance: soluble recombinant NKG2D (from UniProt P26718 1-216) (receptor)
